We go through 4 substances from publication PMC8409790.

For orientation: pKd means the negative decadic logarithm of the Kd, by convention in mol/L. Low values mean a high Kd, high ones a low Kd.

In this experiment the target is FcRn/β2 microglobulin (UniProt P55899). Kind of experiment: SPR. For orientation: Surface plasmon resonance follows binding to a sensor surface in real time, without labels.

pKd: −log10 of the molar value.

Chain of FcRn/β2 microglobulin (P55899 24-365, chain 1 of 2): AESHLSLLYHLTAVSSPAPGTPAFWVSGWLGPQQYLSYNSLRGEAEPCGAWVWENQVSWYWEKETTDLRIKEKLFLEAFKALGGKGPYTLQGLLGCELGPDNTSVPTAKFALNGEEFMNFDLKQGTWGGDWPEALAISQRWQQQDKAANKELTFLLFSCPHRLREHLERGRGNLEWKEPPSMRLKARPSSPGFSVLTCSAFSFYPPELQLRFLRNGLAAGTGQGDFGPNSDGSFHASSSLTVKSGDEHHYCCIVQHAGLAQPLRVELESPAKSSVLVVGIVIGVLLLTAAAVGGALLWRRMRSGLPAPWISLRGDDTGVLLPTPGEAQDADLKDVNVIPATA
Chain of FcRn/β2 microglobulin (P61769 21-119, chain 2 of 2, further chain): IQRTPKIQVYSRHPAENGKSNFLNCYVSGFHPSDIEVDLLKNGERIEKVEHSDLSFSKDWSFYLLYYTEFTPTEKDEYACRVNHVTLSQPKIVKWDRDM

Regarding Risankizumab (antibody), the pKd was 5.30. Next, Tildrakizumab (antibody): 5.30. In the case of Guselkumab (antibody), the pKd was 5.30.

Take Ustekinumab (antibody): the pKd is 5.30.
